# Experimental data taken from paper PMC7054171.
# Molecular target: GST tagged Cdc42 Q61L (human) (UniProt P60953)
# Assay: pull-down
# GST tagged Cdc42 Q61L (human), sequence (P60953 whole entry Q61L): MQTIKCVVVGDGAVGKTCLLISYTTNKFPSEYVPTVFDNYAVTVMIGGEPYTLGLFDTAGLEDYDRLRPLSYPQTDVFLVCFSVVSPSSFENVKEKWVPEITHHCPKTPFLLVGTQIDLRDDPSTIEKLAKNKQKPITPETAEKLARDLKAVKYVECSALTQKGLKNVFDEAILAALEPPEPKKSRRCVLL
substance,measurement,value
"mVenus-Z-lock-WASP dark (zDK2-GS0-CBD-LOV2, dark state variant) (from UniProt P42768 230-288; O49003 404-546) (designed binder)",fold reduction in binding against the lit state variant,> 5 fold
